T1: hu-CD96 (soluble, isoform 2 extracellular domain) (human, UniProt P40200 22-516, biotinylated in Octet and blocking ELISA)
T1 construct: the assays name only hu-CD96; also called hCD96; biotinylated hu-CD96
T1 sequence: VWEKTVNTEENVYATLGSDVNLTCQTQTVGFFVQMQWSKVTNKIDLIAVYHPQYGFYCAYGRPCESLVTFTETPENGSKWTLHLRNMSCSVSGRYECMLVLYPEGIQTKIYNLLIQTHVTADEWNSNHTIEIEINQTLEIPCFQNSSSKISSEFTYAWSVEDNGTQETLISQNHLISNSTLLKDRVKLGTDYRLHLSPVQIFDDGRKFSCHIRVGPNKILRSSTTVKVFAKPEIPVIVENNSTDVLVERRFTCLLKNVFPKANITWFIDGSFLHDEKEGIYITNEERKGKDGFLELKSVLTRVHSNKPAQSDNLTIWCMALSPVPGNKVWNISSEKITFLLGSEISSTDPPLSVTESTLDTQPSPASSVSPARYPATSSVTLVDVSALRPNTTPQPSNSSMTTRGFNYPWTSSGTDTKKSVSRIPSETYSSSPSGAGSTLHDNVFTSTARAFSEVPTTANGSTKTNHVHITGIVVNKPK

B1: mAb1.v7 Fab (Fab, V domains shown)
VH: EVQLVQSGAEVKKPGASVKVSCKASGFTFTNNWMHWVRQAPGQGLEWIGMIHPNSGITNINEKFKNRVTMTTDTSTSTAYMELRSLRSEDTAVYYCRSDGTYEGYFDYWGQGTLVTVSS
VL: DIQLTQSPSSLSASVGDRVTITCKASQNVGTAIVWYQQKPGKAPKVLIYSASTRYTGVPSRFSGSGSGTDFTLTISSLQPEDFATYYCQQYSSSPLTFGQGTKVEIK
B2: mAb1.v7.2 Fab (Fab, V domains shown)
VH: EVQLVQSGAEVKKPGASVKVSCKASGFTFTNNWRHWVRQAPGQGLEWIGMIHFNSGITNINEKFKNRVTMTTDTSTSTAYMELRSLRSEDTAVYYCRSDGVYEGYFDYWGQGTLVTVSS
VL: DIQLTQSPSSLSASVGDRVTITCKASQNVGTAIVWYQQKPGKAPKVLIYSASTRYTGVPSRFSGSGSGTDFTLTISSLQPEDFATYYCQQYSSSPLTFGQGTKVEIK
notes: also called M34R/P52aF/T97V
B3: mAb1.v7.9 Fab (Fab, V domains shown)
VH: EVQLVQSGAEVKKPGASVKVSCKASGFTFTNNWRHWVRQAPGQGLEWIGMIHMNSGITNINEKFKNRVTMTTDTSTSTAYMELRSLRSEDTAVYYCRSDGVYEGYFDYWGQGTLVTVSS
VL: DIQLTQSPSSLSASVGDRVTITCKASQNVGTAIVWYQQKPGKAPKVLIYSASTRYTGVPSRFSGSGSGTDFTLTISSLQPEDFATYYCQQYSSSPLTFGQGTKVEIK
notes: also called M34R/P52aM/T97V
B4: mAb1.v7.16 Fab (Fab, V domains shown)
VH: EVQLVQSGAEVKKPGASVKVSCKASGFTFTNNWRHWVRQAPGQGLEWIGMIHPNSGITNINEKFKNRVTMTTDTSTSTAYMELRSLRSEDTAVYYCRSDGVYEGYFDYWGQGTLVTVSS
VL: DIQLTQSPSSLSASVGDRVTITCKASQNVGTAIVWYQQKPGKAPKVLIYSASTRYTGVPSRFSGSGSGTDFTLTISSLQPEDFATYYCQQYSSSPLTFGQGTKVEIK
notes: also called M34R/T97V
B5: mAb1.v7.48 Fab (Fab, V domains shown)
VH: EVQLVQSGAEVKKPGASVKVSCKASGFTFTNRWMHWVRQAPGQGLEWIGMIHHNSGITNINEKFKNRVTMTTDTSTSTAYMELRSLRSEDTAVYYCRSDGVYEGYFDYWGQGTLVTVSS
VL: DIQLTQSPSSLSASVGDRVTITCKASQNVGTAIVWYQQKPGKAPKVLIYSASTRYTGVPSRFSGSGSGTDFTLTISSLQPEDFATYYCQQYSSSPLTFGQGTKVEIK
notes: also called N32R/P52aH/T97V
B6: mAb1.v7.70 Fab (Fab, V domains shown)
VH: EVQLVQSGAEVKKPGASVKVSCKASGFTFTNRWMHWVRQAPGQGLEWIGMIHANSGITNINEKFKNRVTMTTDTSTSTAYMELRSLRSEDTAVYYCRSDGVYEGYFDYWGQGTLVTVSS
VL: DIQLTQSPSSLSASVGDRVTITCKASQNVGTAIVWYQQKPGKAPKVLIYSASTRYTGVPSRFSGSGSGTDFTLTISSLQPEDFATYYCQQYSSSPLTFGQGTKVEIK
notes: also called N32R/P52aA/T97V

Experiments:
[1] = molecular target: T1, hu-CD96 (soluble, isoform 2 …); experiment: BLI (Octet), biotin-CD96 on SA, Fab analyte
Protocol: The binding affinity of the generated Fab variants of mAb1.v7 for hu-CD96 and cy-CD96 was determined by OCTET (Pall ForteBio) Bio-Layer Interferometry (BLI) binding analysis. The biotinylated hu-CD96 or biotinylated cy-CD96 was diluted to a final concentration 10 µg/mL in experimental buffer (PBS buffer with 0.01% Tween-20) and immobilized on the Streptavidin Capture (SA) biosensors (Pall ForteBio). Three-fold serial dilutions of the mAb1.v7 Fab variants starting at 1 µM as analytes were diluted in the experimental buffer (PBS buffer with 0.01% Tween-20). The biosensors were equilibrated in experimental buffer at 30° C. for ten minutes prior to starting the experiment. The kinetics experiment was performed with the following steps, where the step name, solution and time are listed: Baseline (buffer—60 seconds), Loading (biotinylated antigen—200 seconds), Baseline 2 (buffer—minimum 120 seconds), Association (analyte—200-300 seconds) and Dissociation (buffer—1000 seconds). The resulting BLI signal from analyte association and dissociation from the […] was analyzed using the Octet Data Analysis software (Pall ForteBio). First a reference subtraction was performed on all recorded traces using the reference well (biosensor that underwent same steps as experimental wells but no analyte for the Association step) and then all the traces were aligned to the beginning of the Association step. The entirety of the Association and Dissociation steps were used in a Global fit (minimum of four analyte concentration traces) in a 1:1 binding model to calculate the K_D values for the 16 selected individual mAb1.v7 Fab variants as summarized in Table 9 (below).

[2] = molecular target: T1, hu-CD96 (soluble, isoform 2 …); experiment: phage competition ELISA, soluble CD96 vs coated hu-CD96
Protocol: 192 colonies from most stringent selections (biotinylated 0.1 nM of hu-CD96 or cy-CD96 with 1000× non-biotinylated human or cy-CD96) were grown in 400 µL 2YT with 4 µL helper phage M13KO7 overnight at 37° C. with shaking. After spinning down the pellet, the phage supernatant was diluted 1:1 with 2 nM hu-CD96, 20 nM cy-CD96 and ELISA buffer (0.5% BSA and 0.05% TWEEN®20 in PBS) in total […] and incubated for two hours at room temperature with agitation. The […] of mixture was transferred to hu-CD96 coated plate for 15 min to capture unbound phage. The plate was washed with wash buffer (0.05% TWEEN®20 in PBS), and HRP-conjugated anti-M13 antibody (Sino biological, Cat #11973-MM05-H-50) was added in ELISA buffer for 30 min. […] Enzymatic color development was stopped using TMB stop solution (VWR, Cat #95059-200). Plates were analyzed with a SpectraMax i3X plate reader (Molecular Devices). The % inhibition was calculated by the $OD450$ of wells with hu-CD96/cy-CD96 competitor divided by $OD450$ of wells with buffer alone. The lower % inhibition indicated higher phage $IC50$ against hu-CD96 or cy-CD96.
Selected top inhibition % phage variants from single spot competition were purified from culture supernatants. The optimal phage concentration was incubated with serially-diluted hu-CD96 or cy-CD96 in ELISA buffer in NUNC F plate for two hours. The […] of the mixture was transferred to hu-CD96 coated wells for 15 min to capture unbound phage. The plate was washed with wash buffer (0.05% TWEEN®20 in PBS), and HRP-conjugated anti-M13 antibody (Sino biological, Cat #11973-MM05-H-50) was added in ELISA buffer for 30 min. The plates were washed and developed as described above. The absorbance at 450 nm was plotted as a function of antigen concentration in solution to determine phage $IC50$.

[3] = molecular target: T2, hu-CD96 Fc (human, biotinylated in Table 16); experiment: SPR 25C, CD96-Fc on Protein A, Fab analyte
T2 construct: also called biotinylated hu-CD96-Fc
Protocol: Briefly, hu-CD96 Fc and cy-CD96 Fc were diluted at 10 µg/mL in HBS-P buffer (0.01 M HEPES pH 7.4, 0.15 M NaCl, 0.005% Surfactant P20) and applied to the Protein A chip at 30 µL/min flow rate for 60 s in flow cell 2 (FC2). Then flow 3-fold serial dilutions of mAb1.v7 Fab variants in HBS-P buffer (0.01 M HEPES pH 7.4, 0.15 M NaCl, 0.005% surfactant P20) from (0.4 nM) to high (1000 nM) were injected (flow rate: 30 µL/min) at 25° C. to both flow cell 1 (FC1) and flow cell 2 (FC2). The sensorgram was recorded and subject to reference and buffer subtraction before evaluating by BIA- CORE® 8K Evaluation Software (version 1.1.1.7442). Association rates ($kon$) and dissociation rates ($koff$) were calculated using a simple one-to-one Langmuir binding model. The equilibrium dissociation constant (K_D) was calculated as the ratio of $koff/kon$, and the values determined for the mAb1.v7 and the 5 Fab variants are summarized in Table 10 (below).

Row | Binder | apparent Kd (pooled screen) [1] [nM] | apparent IC50 (pooled screen) [2] [nM] | Kd [3] [nM] | koff [3] [s⁻¹] | kon [3] [M⁻¹ s⁻¹] | Kd [1] [nM] | IC50 [2] [nM]
1 | B1 | 76 | 0.5 | 44.6 | 0.000817 | 18300 | – | –
2 | B2 | – | – | 0.67 | 1.06e-05 | 15800 | 3.75 | 0.08
3 | B3 | – | – | 5.05 | 7.02e-05 | 13900 | ~0.1 | 0.11
4 | B4 | – | – | 0.38 | 2.81e-06 | 7380 | 1.4 | 0.1
5 | B5 | – | – | 0.795 | 1.26e-05 | 15900 | ~0.1 | 0.1
6 | B6 | – | – | 1.73 | 2.74e-05 | 15900 | ~0.1 | 0.14
